{
  "source": "the DeepSol protein solubility set",
  "data": [
    {"test": "soluble on expression in E. coli; label from the status in PepcDB or PDB records", "values": [
      {"sequence": "MLLQEELEQRTVSVSIQAAKLSGRVLRAAIAAVLQKMEQERTMPKVGRNSMKRLTYKDPGANTIEVSGRIRSFERYARKHQVRYHIEKELGTDPPKWTVYFKANQADALTAAFKEYTKKDLTRSTRPSLLIQLHKFKELAQSLGRDRVKNKEHGGPER", "soluble on expression in E. coli": "not soluble"},
      {"sequence": "MFSLSKTLAALLLCSAASLAQAAETAICYNCPPEWADWGTQLKAIADSTSVQVPLDNKNSGQALAQIVAEQAAPVADVVYYGVTFGLQAQKAGVVDTYKPKHWDDIPAGLKDPQGHWFAIHSGTLGIMVNVDALGGLPVPQSWADLLKPEYKGMVGYLDPSSAFVGYVSAVAINQAMGGSLDNFGPAIDYFQKLAKNSPIVPKQTAYARALSGELPILVDYDFNAYRARYKDKANVAFVIPKEGTIGVPYVMSMVAKAPHRANAEKVLDFVLSDAGQALWAKAYLRPVRSKMPADVAAQFLPDSDYARAGVVDYQRMAAVQEAFAARYLREVK", "soluble on expression in E. coli": "not soluble"},
      {"sequence": "MIITVASFKGGVGKTTTAVHLSAYLALQGETLLIDGDPNRSATGWGKRGSLPFKVVDERQAAKYAPKYQNIVIDTQARPEDEDLEALADGCDLLVIPSTPDALALDALILTIETLQKLGNNRFRILLTIIPPYPSKDGDEARQLLTTAGLPLFKRGIKRYSAFQKASLNGVVVSEVSDSKAGIAWSDYKATGKEIVEEILILEHHHHHH", "soluble on expression in E. coli": "soluble"},
      {"sequence": "MGHHHHHHSHMLALATSIHQSQLDRERILSLEQRVVELQQTLAQKDQALGKLEQSLRLMEEASFDGTFLWKITNVTRRCHESACGRTVSLFSPAFYTAKYGYKLCLRLYLNGDGTGKRTHLSLFIVIMRGEYDALLPWPFRNKVTFMLLDQNNREHAIDAFRPDLSSASFQRPQSETNVASGCPLFFPLSKLQSPKHAYVKDDTMFLKCIVETST", "soluble on expression in E. coli": "not soluble"},
      {"sequence": "EPIVTVYVAYGGLDLIAEEFEKDTGIKMEYVSLSSGEALSRLKAEQSNPSADVWLGGGIDAFISAQNDGLLEAYKSPNAEEIDPLFVEENGYWIGVSLVTIGILENTDLMTEKGLPEPETWDDLITEDYSGELIASNPTVSGTAYFTICGILQMNGEEEGWNYLDKFYQNTPFLTKRGSGPGNLVTAGEYAYGVAPDPHTTLIANSELPVKSVFLDNVIWWPSPVSIVNGAKHPENAKIFVDWCLSKEGQEVLMQASPRVPVRGDI", "soluble on expression in E. coli": "not soluble"},
      {"sequence": "MGSDKIHHHHHHMTTSYTITCSRPTNYGAVLQTYGLNTALRKMGVDAKVLDYNPKYYYTSTQPLPIRMVRAVVRFPDLTKGRKVFGKFLEDYVPMSAKTYRTLAEIEADVPQADVYICGSDQIWNCKNKLNGKDDAFFLSFAPAKARKVAYAASIAMPEIPNNQKTRYHRLISDFDAVSVREPSSVPMLEDLGIDNVQSVIDPVFLLERNDWDVIADASDFVPTEDYVLVYGYNRQKDVYAYARRLAKKLGVKVYTIGTAIEDYTLDQDRYFWNASPNTFVNLVRNAKAVVTNSFHGTVFSIVYNKPFHFFTVKQTTNSRMLDLLDSLTLKDRHVVGEELLSNDIDYDRPNQLLAEAKKRSLGFLQTNVASYVSENKPMKG", "soluble on expression in E. coli": "not soluble"},
      {"sequence": "MPVLHNRISNDALKAKMLAESEPRTTISFYKYFHIADPKATRDALYQLFTALNVFGRVYLAHEGINAQISVPASNVETFRAQLYAFDPALEGLRLNIALDDDGKSFWVLRMKVRDRIVADGIDDPHFDASNVGEYLQAAEVNAMLDDPDALFIDMRNHYEYEVGHFENALEIPADTFREQLPKAVEMMQAHKDKKIVMYCTGGIRCEKASAWMKHNGFNKVWHIEGGIIEYARKAREQGLPVRFIGKNFVFDERMGERISDEIIAHCHQCGAPCDSHTNCKNDGCHLLFIQCPVCAEKYKGCCSEICCEESALPPEEQRRRRAGRENGNKIFNKSRGRLNTTLGIPDPTE", "soluble on expression in E. coli": "not soluble"},
      {"sequence": "MGSDKIHHHHHHMYRLSQYETPLFTALVEHSKRNPIQFHIPGHKKGQGMDPEFREFIGHNALAIDLINIAPLDDLHHPKGMIKEAQDLAAAAFGADHTFFSIQGTSGAIMTMVMSVCGPGDKILVPRNVHKSVMSAIIFSGAKPIFMHPEIDPKLGISHGITIQSVKKALEEHSDAKGLLVINPTYFGFAADLEQIVQLAHSYDIPVLVDEAHGVHIHFHDELPMSAMQAGADMAATSVHKLGGSLTQSSILNVKEGLVNVKHVQSIISMLTTTSTSYILLASLDVARKRLATEGTALIEQTIQLAEQVRDAINDIEHLYCPGKEMLGTDATFNYDPTKIIVSVKDLGITGHQAEVWLREQYNIEVELSDLYNILCLVTFGDTESETNTLIAALQDLSATFKNKADKGVQVQVEIPEIPVLALSPRDAFYSETEVIPFENAAGRIIADFVMVYPPGIPIFTPGEIITQDNLEYIRKNLEAGLPVQGPEDMTLQTLRVIKEYKPIS", "soluble on expression in E. coli": "not soluble"},
      {"sequence": "SSEWMKKGPLEWQDYIYKEVRVTASEKNEYKGWVLTTDPVSANIVLVNFLEDGSMSVTGIMGHAVQTVETMNEGDHRVREKLMHLF", "soluble on expression in E. coli": "soluble"},
      {"sequence": "MVTITLYMNNNIEYISKIKKGEETSFRHFVNSYSKDLFYYAQCFVRSKETAEEVVSDVFLDVWRHREEIDEIKNIKAWLLTLTHNKAISYLRKAENSSEIASWEEIDDFQIIGNLQTPDEEMISKEEIAQINSLIQTLPPKCKVVFALAKIERLPYKEIADMLNISVKTINVHVAKALEIISNGLKK", "soluble on expression in E. coli": "not soluble"},
      {"sequence": "MGSDKIHHHHHHMLLMPTKDWRWEFNEEYGQLALSLDTQMSFLTAYKTKMLIPDALKGMKFSVEHAKFYIRMLERLPQLLTLSDAMIVQTALNATAAHFLLKPQMPKSWFFDVSDECVYFDLGKVFQLKNNQQSMLVLVVEVGLQSVLVMNLSAACQLSDNKSLGQFDTIKVMHDRLHPLSRAKQIVAA", "soluble on expression in E. coli": "not soluble"},
      {"sequence": "MTTLLNPYFGEFGGMYVPQILMPALNQLEEAFVSAQKDPEFQAQFADLLKNYAGRPTALTKCQNITAGTRTTLYLKREDLLHGGAHKTNQVLGQALLAKRMGKSEIIAEVGAGNHGVASALASALLGLKCRIYMGAKDVERQSPNVFRMRLMGAEVIPVHSGSATLKDACNEALRDWSGSYETAHYMLGTAAGPHPYPTIVREFQRMIGEETKAQILDKEGRLPDAVIACVGGGSNAIGMFADFINDTSVGLIGVEPGGHGIETGEHGAPLKHGRVGIYFGMKAPMMQTADGQIEESYSISAGLDFPSVGPQHAYLNSIGRADYVSITDDEALEAFKTLCRHEGIIPALESSHALAHALKMMREQPEKEQLLVVNLSGRGDKDIFTVHDILKARGEI", "soluble on expression in E. coli": "soluble"},
      {"sequence": "MGSDKIHHHHHHMIILVGGEKGGSGKSCLAQNIAVFLTNEVQASVIMVDCDPQRTTSDWIQARNNNPKLPAINCVQLYGKIRNDLLSLEQHYDYVVVDCGGQDNLALRATMSVASYVLMPLRPKRRDLKTVSHMDDIVSTCLMINPKMKASFVITQCPSLPNQASRITEAKDVCRTYDINVLDAVNYCRNIYDDSEESGLSVFELEPQGKAADEMRSIACELLDITDAKQLIEQRNTASNVTPMRGNYGTSRSQEKRFVM", "soluble on expression in E. coli": "not soluble"},
      {"sequence": "MGSDKIHHHHHHMKLLDHKLSLLEITDEEKSDEIILNLSRNVKKDLEDIVVANVSMENVLVMNIKVPPTLNKQNAVEYATMEISRNLGILPEQLVVAPLDIRGGEGLFFVSKVDQVKSFVTDLMKKEFPETDVVIPDIVKYLEVFEFYFGKRLKGTSVLTVISFLSDYYSIVVLENNHYRSLRLLFSMFWDYMDIVVENTGIQPKELIEGTVNVDLSFLQPYFGDFLIELDREVKVSLDEVNLSRVNQFFYIVDPPIFSPVLSQSLEKFEGVALKQGIVPSFKPGISLGTLGLMIRGGREIGKVKHLSV", "soluble on expression in E. coli": "not soluble"},
      {"sequence": "MKGDRLKANVLAVRLIPNVDSDMAKELGLPNEHRSIGILTADCDDVTYTALDEATKKAVVDVAYGKSFYGGAANANTKLAGEVIGILSGPTPAEVKSGLAAAVDFIENEAAFISANDDDSIAYFAHCISRTGTYLSKTAGIPEGESLAYLIAPPLEAMYALDVALKAADVRLVAFYGPPSETNFGGGLLTGSQSACKAACDAFAEAVKFVADNPLNY", "soluble on expression in E. coli": "soluble"},
      {"sequence": "MSTSTLQSEQSMEIITPPADIGTRTLVDKAAQFVSKKGLEFETKIIDSYPTDAKFNFLRSTADPCHTYYKHKLAEYSSQNQDGATDESDIKIFHAPPNVTTTAIVETTSCLVSQFGSEFEMMVKDSNTDDARFNFLKSSEDPYNVLYKQKLDEYSLDPRDAYYQHKLAESISKYHREATPKLVLPNLLQFRLVKEMTFEELDTVKVTAQFVAWYGDDFRGFLMERVMTEPQFEFMKATDYRFSFYNEFVVAYSQVLNPPKYLKDKLRGRAAYTVIGHLLITMSEEEIS", "soluble on expression in E. coli": "soluble"}
    ]}
  ]
}
